According to US11499162B2, “Plants having increased tolerance to herbicides” (BASF SE, priority 2016, dated 2022):

Type: biochemical
Conditions: pH 7.2
Outline: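 TriA variants, N-His-tagged, were expressed in E. coli BL21(DE3) Gold with groEL/groES chaperones and purified by Ni-IDA affinity. Enzyme in 25 mM sodium phosphate pH 7.2 was incubated with azine substrates at 1 nM to 10 nM, 30° C. Products were identified by UPLC-HR-MS.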

B1: Q71NL88AL92AY93L: mutated TriA variant of SEQ ID NO: 2 (protein)
chain: MQTLSIQHGTLVTMDQYRRVLGDSWVHVQDGRIVALGVHAESVPPPADRVIDARGKVVLPGFINAHTHVNNILLRGGPSHGRQLYDWAFNVALPGQKAMRPEDVAVAVRLYCAEAVRSGITTINDNADSAIYPGNIEAAMAVYGEVGVRVVYARMFFDRMDGRIQGYVDALKARSPQVELCSIMEETAVAKDRITALSDQYHGTAGGRISVWPAPAITPAVTVEGMRWAQAFARDRAVMWTLHMAESDHDERLHWMSPAEYMECYGLLDERLQVAHCVYFDRKDVRLLHRHNVKVASQVVSNAYLGSGVAPVPEMVERGMAVGIGTDDGNCNDSVNMIGDMKFMAHIHRAVHRDADVLTPEKILEMATIDGARSLGMDHEIGSIETGKRADLILLDLRHPQTTPHHHLAATIVFQAYGNEVDTVLIDGNVVMENRRLSFLPPERELAFLEEAQSRATAILQRANMVANPAWRSL
modifications: Pseudomonas
- Degradation in % of 6-cyclopentyl-N4-(2,3,4,5,6-pentafluorophenyl)-1,3,5-triazine-2,4-diamine: 99%
- Degradation in % of Melamine: 4%

B2: Q71NL88AL92AY93LI217A: mutated TriA variant of SEQ ID NO: 2 (protein)
chain: MQTLSIQHGTLVTMDQYRRVLGDSWVHVQDGRIVALGVHAESVPPPADRVIDARGKVVLPGFINAHTHVNNILLRGGPSHGRQLYDWAFNVALPGQKAMRPEDVAVAVRLYCAEAVRSGITTINDNADSAIYPGNIEAAMAVYGEVGVRVVYARMFFDRMDGRIQGYVDALKARSPQVELCSIMEETAVAKDRITALSDQYHGTAGGRISVWPAPAATPAVTVEGMRWAQAFARDRAVMWTLHMAESDHDERLHWMSPAEYMECYGLLDERLQVAHCVYFDRKDVRLLHRHNVKVASQVVSNAYLGSGVAPVPEMVERGMAVGIGTDDGNCNDSVNMIGDMKFMAHIHRAVHRDADVLTPEKILEMATIDGARSLGMDHEIGSIETGKRADLILLDLRHPQTTPHHHLAATIVFQAYGNEVDTVLIDGNVVMENRRLSFLPPERELAFLEEAQSRATAILQRANMVANPAWRSL
modifications: Pseudomonas
- Degradation in % of 6-cyclopentyl-N4-(2,3,4,5,6-pentafluorophenyl)-1,3,5-triazine-2,4-diamine: 99%
- Degradation in % of Melamine: 12%

B3: Q71NL92AY93FD128G: mutated TriA variant of SEQ ID NO: 2 (protein)
chain: MQTLSIQHGTLVTMDQYRRVLGDSWVHVQDGRIVALGVHAESVPPPADRVIDARGKVVLPGFINAHTHVNNILLRGGPSHGRQLYDWLFNVAFPGQKAMRPEDVAVAVRLYCAEAVRSGITTINDNAGSAIYPGNIEAAMAVYGEVGVRVVYARMFFDRMDGRIQGYVDALKARSPQVELCSIMEETAVAKDRITALSDQYHGTAGGRISVWPAPAITPAVTVEGMRWAQAFARDRAVMWTLHMAESDHDERLHWMSPAEYMECYGLLDERLQVAHCVYFDRKDVRLLHRHNVKVASQVVSNAYLGSGVAPVPEMVERGMAVGIGTDDGNCNDSVNMIGDMKFMAHIHRAVHRDADVLTPEKILEMATIDGARSLGMDHEIGSIETGKRADLILLDLRHPQTTPHHHLAATIVFQAYGNEVDTVLIDGNVVMENRRLSFLPPERELAFLEEAQSRATAILQRANMVANPAWRSL
modifications: Pseudomonas
- Degradation in % of 6-cyclopentyl-N4-(2,3,4,5,6-pentafluorophenyl)-1,3,5-triazine-2,4-diamine: 74%
- Degradation in % of Melamine: 0%

B4: Q71NL88AL92AY93FF157L: mutated TriA variant of SEQ ID NO: 2 (protein)
chain: MQTLSIQHGTLVTMDQYRRVLGDSWVHVQDGRIVALGVHAESVPPPADRVIDARGKVVLPGFINAHTHVNNILLRGGPSHGRQLYDWAFNVAFPGQKAMRPEDVAVAVRLYCAEAVRSGITTINDNADSAIYPGNIEAAMAVYGEVGVRVVYARMFLDRMDGRIQGYVDALKARSPQVELCSIMEETAVAKDRITALSDQYHGTAGGRISVWPAPAITPAVTVEGMRWAQAFARDRAVMWTLHMAESDHDERLHWMSPAEYMECYGLLDERLQVAHCVYFDRKDVRLLHRHNVKVASQVVSNAYLGSGVAPVPEMVERGMAVGIGTDDGNCNDSVNMIGDMKFMAHIHRAVHRDADVLTPEKILEMATIDGARSLGMDHEIGSIETGKRADLILLDLRHPQTTPHHHLAATIVFQAYGNEVDTVLIDGNVVMENRRLSFLPPERELAFLEEAQSRATAILQRANMVANPAWRSL
modifications: Pseudomonas
- Degradation in % of 6-cyclopentyl-N4-(2,3,4,5,6-pentafluorophenyl)-1,3,5-triazine-2,4-diamine: 91%
- Degradation in % of Melamine: 1%

B5: Q71NL92AY93FD128A: mutated TriA variant of SEQ ID NO: 2 (protein)
chain: MQTLSIQHGTLVTMDQYRRVLGDSWVHVQDGRIVALGVHAESVPPPADRVIDARGKVVLPGFINAHTHVNNILLRGGPSHGRQLYDWLFNVAFPGQKAMRPEDVAVAVRLYCAEAVRSGITTINDNAASAIYPGNIEAAMAVYGEVGVRVVYARMFFDRMDGRIQGYVDALKARSPQVELCSIMEETAVAKDRITALSDQYHGTAGGRISVWPAPAITPAVTVEGMRWAQAFARDRAVMWTLHMAESDHDERLHWMSPAEYMECYGLLDERLQVAHCVYFDRKDVRLLHRHNVKVASQVVSNAYLGSGVAPVPEMVERGMAVGIGTDDGNCNDSVNMIGDMKFMAHIHRAVHRDADVLTPEKILEMATIDGARSLGMDHEIGSIETGKRADLILLDLRHPQTTPHHHLAATIVFQAYGNEVDTVLIDGNVVMENRRLSFLPPERELAFLEEAQSRATAILQRANMVANPAWRSL
modifications: Pseudomonas
- Degradation in % of 6-cyclopentyl-N4-(2,3,4,5,6-pentafluorophenyl)-1,3,5-triazine-2,4-diamine: 98%
- Degradation in % of Melamine: 0%

B6: Q71NL88AL92AD128G: mutated TriA variant of SEQ ID NO: 2 (protein)
chain: MQTLSIQHGTLVTMDQYRRVLGDSWVHVQDGRIVALGVHAESVPPPADRVIDARGKVVLPGFINAHTHVNNILLRGGPSHGRQLYDWAFNVAYPGQKAMRPEDVAVAVRLYCAEAVRSGITTINDNAGSAIYPGNIEAAMAVYGEVGVRVVYARMFFDRMDGRIQGYVDALKARSPQVELCSIMEETAVAKDRITALSDQYHGTAGGRISVWPAPAITPAVTVEGMRWAQAFARDRAVMWTLHMAESDHDERLHWMSPAEYMECYGLLDERLQVAHCVYFDRKDVRLLHRHNVKVASQVVSNAYLGSGVAPVPEMVERGMAVGIGTDDGNCNDSVNMIGDMKFMAHIHRAVHRDADVLTPEKILEMATIDGARSLGMDHEIGSIETGKRADLILLDLRHPQTTPHHHLAATIVFQAYGNEVDTVLIDGNVVMENRRLSFLPPERELAFLEEAQSRATAILQRANMVANPAWRSL
modifications: Pseudomonas
- Degradation in % of 6-cyclopentyl-N4-(2,3,4,5,6-pentafluorophenyl)-1,3,5-triazine-2,4-diamine: 31%
- Degradation in % of Melamine: 0%

B7: Q71NL88AL92AY93F: mutated TriA variant of SEQ ID NO: 2 (protein)
chain: MQTLSIQHGTLVTMDQYRRVLGDSWVHVQDGRIVALGVHAESVPPPADRVIDARGKVVLPGFINAHTHVNNILLRGGPSHGRQLYDWAFNVAFPGQKAMRPEDVAVAVRLYCAEAVRSGITTINDNADSAIYPGNIEAAMAVYGEVGVRVVYARMFFDRMDGRIQGYVDALKARSPQVELCSIMEETAVAKDRITALSDQYHGTAGGRISVWPAPAITPAVTVEGMRWAQAFARDRAVMWTLHMAESDHDERLHWMSPAEYMECYGLLDERLQVAHCVYFDRKDVRLLHRHNVKVASQVVSNAYLGSGVAPVPEMVERGMAVGIGTDDGNCNDSVNMIGDMKFMAHIHRAVHRDADVLTPEKILEMATIDGARSLGMDHEIGSIETGKRADLILLDLRHPQTTPHHHLAATIVFQAYGNEVDTVLIDGNVVMENRRLSFLPPERELAFLEEAQSRATAILQRANMVANPAWRSL
modifications: Pseudomonas
- Degradation in % of 6-cyclopentyl-N4-(2,3,4,5,6-pentafluorophenyl)-1,3,5-triazine-2,4-diamine: 92%
- Degradation in % of Melamine: 5%

B8: Q71G: mutated TriA variant of SEQ ID NO: 2 (protein)
chain: MQTLSIQHGTLVTMDQYRRVLGDSWVHVQDGRIVALGVHAESVPPPADRVIDARGKVVLPGFINAHTHVNGILLRGGPSHGRQLYDWLFNVLYPGQKAMRPEDVAVAVRLYCAEAVRSGITTINDNADSAIYPGNIEAAMAVYGEVGVRVVYARMFFDRMDGRIQGYVDALKARSPQVELCSIMEETAVAKDRITALSDQYHGTAGGRISVWPAPAITPAVTVEGMRWAQAFARDRAVMWTLHMAESDHDERLHWMSPAEYMECYGLLDERLQVAHCVYFDRKDVRLLHRHNVKVASQVVSNAYLGSGVAPVPEMVERGMAVGIGTDDGNCNDSVNMIGDMKFMAHIHRAVHRDADVLTPEKILEMATIDGARSLGMDHEIGSIETGKRADLILLDLRHPQTTPHHHLAATIVFQAYGNEVDTVLIDGNVVMENRRLSFLPPERELAFLEEAQSRATAILQRANMVANPAWRSL
modifications: Pseudomonas
- Degradation in % of 6-cyclopentyl-N4-(2,3,4,5,6-pentafluorophenyl)-1,3,5-triazine-2,4-diamine: 0%
- Degradation in % of Melamine: 19%

B9: Q71NL88AL92AD128A: mutated TriA variant of SEQ ID NO: 2 (protein)
chain: MQTLSIQHGTLVTMDQYRRVLGDSWVHVQDGRIVALGVHAESVPPPADRVIDARGKVVLPGFINAHTHVNNILLRGGPSHGRQLYDWAFNVAYPGQKAMRPEDVAVAVRLYCAEAVRSGITTINDNAASAIYPGNIEAAMAVYGEVGVRVVYARMFFDRMDGRIQGYVDALKARSPQVELCSIMEETAVAKDRITALSDQYHGTAGGRISVWPAPAITPAVTVEGMRWAQAFARDRAVMWTLHMAESDHDERLHWMSPAEYMECYGLLDERLQVAHCVYFDRKDVRLLHRHNVKVASQVVSNAYLGSGVAPVPEMVERGMAVGIGTDDGNCNDSVNMIGDMKFMAHIHRAVHRDADVLTPEKILEMATIDGARSLGMDHEIGSIETGKRADLILLDLRHPQTTPHHHLAATIVFQAYGNEVDTVLIDGNVVMENRRLSFLPPERELAFLEEAQSRATAILQRANMVANPAWRSL
modifications: Pseudomonas
- Degradation in % of 6-cyclopentyl-N4-(2,3,4,5,6-pentafluorophenyl)-1,3,5-triazine-2,4-diamine: 4%
- Degradation in % of Melamine: 0%

B10: Q71NL92AY93FD128GQ96T: mutated TriA variant of SEQ ID NO: 2 (protein)
chain: MQTLSIQHGTLVTMDQYRRVLGDSWVHVQDGRIVALGVHAESVPPPADRVIDARGKVVLPGFINAHTHVNNILLRGGPSHGRQLYDWLFNVAFPGTKAMRPEDVAVAVRLYCAEAVRSGITTINDNAGSAIYPGNIEAAMAVYGEVGVRVVYARMFFDRMDGRIQGYVDALKARSPQVELCSIMEETAVAKDRITALSDQYHGTAGGRISVWPAPAITPAVTVEGMRWAQAFARDRAVMWTLHMAESDHDERLHWMSPAEYMECYGLLDERLQVAHCVYFDRKDVRLLHRHNVKVASQVVSNAYLGSGVAPVPEMVERGMAVGIGTDDGNCNDSVNMIGDMKFMAHIHRAVHRDADVLTPEKILEMATIDGARSLGMDHEIGSIETGKRADLILLDLRHPQTTPHHHLAATIVFQAYGNEVDTVLIDGNVVMENRRLSFLPPERELAFLEEAQSRATAILQRANMVANPAWRSL
modifications: Pseudomonas
- Degradation in % of 6-cyclopentyl-N4-(2,3,4,5,6-pentafluorophenyl)-1,3,5-triazine-2,4-diamine: 99%
- Degradation in % of Melamine: 1%
